The results in this text go back to the RNAGym collection of RNA variant scans (doi:10.7554/elife.80360).

B1: HDV Ribozyme (parent)
chain: GGCCGGCAUGGUCCCAGCCUCCUCGCUGGCGCCGGCUGGGCAACAUUCCGAGGGGACCGUCCCCUCGGUAAUGGCGAAUGGGACCCA

Variants of B1 are the subject of this data set. The experiment in a line: self-cleavage, relative activity (ratio to wild type); higher = more cleavage; co-transcriptional.
G68A G73C: the self-cleavage came out at 0.257. For the variant G68A G73A, the self-cleavage came to 0.463.

As for G68A G73U, the self-cleavage was found to be 0.251. As for G68C A71C, the self-cleavage came to 0.554. Take A71U A77C: the self-cleavage is 0.287. To A71U C86U belongs 1.02; to G67U C85A, 0.831; to G67U C85G, 0.831. Turning to G73U U79G, the self-cleavage was found to be 0.374. On to A70U G74U, for which the self-cleavage came to 0.499. Consider A70U G74A, for which the self-cleavage came out at 0.358. Turning to U69A G74C, the self-cleavage came to 0.297. Consider U69A G74A, for which the self-cleavage stood at 0.511. Turning to G74C C84G, the self-cleavage is 0.0875. Under A70G U79A stands 0.77. A70G U79G: the self-cleavage was determined as 0.582. As to A70G U79C, the self-cleavage is 0.365. For the variant G68A C75G, the self-cleavage was 0.0875. Take C66U U79A: the self-cleavage was determined as 0.869. As for C66U U79G, the self-cleavage stood at 0.453. Consider C75A C86A, for which the self-cleavage is 0.219. A71C G74U: the self-cleavage is 0.789. With G67C A71G, the self-cleavage was 0.743. With G68C A77C, the self-cleavage came out at 0.185. Under G68C A83C stands 0.332. Under G68C G80A stands 0.421; under G68U A83U, 0.629; under G68U A83G, 0.407.

Regarding G67A A71G, the self-cleavage is 1.05. Consider U69C A71U, for which the self-cleavage turned out to be 1.01. For U69A G82C, the self-cleavage turned out to be 0.554. On to U72A C75A, for which the self-cleavage came out at 0.222. A71U C85A: the self-cleavage is 1.08.

Consider A71G U79C, for which the self-cleavage is 0.339. As for A70C C84G, the self-cleavage came out at 0.323. For the variant C66G G82U, the self-cleavage is 0.485.

In the case of C66G G82C, the self-cleavage was found to be 0.0959.

Take A70G G81C: the self-cleavage is 0.277. In the case of U72G G80U, the self-cleavage is 0.0963. G68C A78C: the self-cleavage was 0.237. Under A71G G73C stands 0.6; under U69A A70C, 0.745. To G67C C85U belongs 0.92.

On to G67U G81U, for which the self-cleavage amounted to 0.155. Regarding G68A G82A, the self-cleavage came to 0.287. On to G67C U72A, for which the self-cleavage was found to be 0.682. Under G67C U72C stands 0.147; under U69G A78G, 0.569.

A70C G80U: the self-cleavage was 0.217. Under U72G A83C stands 0.332; under G68A U79G, 0.584. C75A C85G: the self-cleavage is 0.116. With C75A C85U, the self-cleavage was 0.256. C66U A70G: the self-cleavage came out at 0.903. As to C66U A70U, the self-cleavage worked out at 0.919. Take C66U A70C: the self-cleavage stood at 0.712.

With A71C C84G, the self-cleavage amounted to 0.415.

Turning to U69C C75U, the self-cleavage was 0.0573. U69A G81A: the self-cleavage was 0.425. Turning to G74A A87U, the self-cleavage came to 0.628. As for G74A A87C, the self-cleavage was found to be 0.583. Under A70G G80C stands 0.104; under G74U G81C, 0.225. On to G74U G81U, for which the self-cleavage came out at 0.156. As for U69G G81A, the self-cleavage was determined as 0.469. As to U72A G76A, the self-cleavage came out at 0.759. Under G74U C75G stands 0.13; under G68A C86G, 1.07; under C66U A83C, 0.298.

Consider G67C G76C, for which the self-cleavage amounted to 1.09. Regarding A70G C85A, the self-cleavage amounted to 1.07. As for A71C A87C, the self-cleavage was 0.755. Turning to A71C A87U, the self-cleavage was found to be 0.844. On to G67U A78G, for which the self-cleavage was determined as 0.791.

In the case of G67U A78C, the self-cleavage worked out at 0.223.

Regarding G67C C84G, the self-cleavage was found to be 0.499.

G67C C84U: the self-cleavage was 0.523. On to G73A A77U, for which the self-cleavage came to 0.189. To G73A A77G belongs 0.386; to G73U G81U, 0.208; to A70C A77U, 0.237.

With C66G G80A, the self-cleavage came to 0.338. In the case of U69G C85U, the self-cleavage turned out to be 0.811. Regarding G68A U72A, the self-cleavage was 0.396.

Regarding A70G C84U, the self-cleavage came to 0.743.

Take G73A A87C: the self-cleavage came out at 0.643. As to C66U G74A, the self-cleavage was 0.451. Turning to G74U U79A, the self-cleavage was found to be 0.268. As to U69G G76U, the self-cleavage stood at 1.01. Regarding U72G A87G, the self-cleavage was determined as 0.546. As for G74A C84A, the self-cleavage was 0.389. G74A C84G: the self-cleavage turned out to be 0.168. To G68U C86G belongs 0.945. Take G68C C75U: the self-cleavage was found to be 0.272. To G67A U72C belongs 0.539; to U72A A77U, 0.322.

Turning to G73A A78G, the self-cleavage was determined as 0.203.

As to G73A A78U, the self-cleavage was found to be 0.106. For G73C G76U, the self-cleavage came to 0.659. Take G73C G76C: the self-cleavage amounted to 0.501.

Consider A71C A77U, for which the self-cleavage came out at 0.322. A71C A77C: the self-cleavage is 0.0978. As for A71C A77G, the self-cleavage amounted to 0.569.

Take G68C U79A: the self-cleavage was determined as 0.705. Turning to A70C G81C, the self-cleavage is 0.201. For U72G A77G, the self-cleavage came out at 0.178. U72G A77C: the self-cleavage was determined as 0.128. Turning to G67A A78C, the self-cleavage was 0.0963. Take G67A A78U: the self-cleavage was found to be 0.234. Turning to G67A A78G, the self-cleavage is 0.604. For the variant U72A G74A, the self-cleavage came to 0.373. As for G67A A83U, the self-cleavage turned out to be 0.359. Under A71C A78C stands 0.219; under A71C A78G, 0.615. With G74A G82C, the self-cleavage turned out to be 0.249.

For G74A G82A, the self-cleavage was 0.0656.

With A70G A83C, the self-cleavage was determined as 0.344. With G73A G81C, the self-cleavage was determined as 0.425. G73A G81U: the self-cleavage stood at 0.18.

U69A: the self-cleavage was found to be 0.977.

For the variant U69G, the self-cleavage came to 0.981. As to U69C, the self-cleavage amounted to 1.02. Under G73A C84G stands 0.345. For A70G G74C, the self-cleavage came to 0.107. Turning to C66G U69C, the self-cleavage is 0.898. With U69A C75A, the self-cleavage came out at 0.119. As to U69A C75G, the self-cleavage came to 0.138. Under G67A C84U stands 0.658. For the variant G67A C84G, the self-cleavage came out at 0.369.

As for G67A C84A, the self-cleavage came out at 0.831. For the variant G67U A83G, the self-cleavage is 0.412. Under A70U A71C stands 0.802; under U69G A87U, 1.06. On to G74A A83U, for which the self-cleavage came to 0.272. Regarding G67C A83G, the self-cleavage was found to be 0.597.

In the case of C66U U69A, the self-cleavage was 0.831. To C66U U69C belongs 0.92. Under G68A C85U stands 0.95; under G67C A77G, 0.508; under G67C C86U, 0.979. In the case of G67C C86A, the self-cleavage was determined as 0.972. To G73C C86G belongs 0.415. Consider G74U A78C, for which the self-cleavage turned out to be 0.201. In the case of U72G U79G, the self-cleavage is 0.332.

A70C C85A: the self-cleavage is 0.883.

As to G68A G76U, the self-cleavage was 1.14. As to G68A G76C, the self-cleavage came out at 0.88. Turning to G74A A77G, the self-cleavage amounted to 0.332. To U72A G82A belongs 0.295; to U72A G82U, 0.225. U69G A71G: the self-cleavage was found to be 1.16. In the case of C66G G74C, the self-cleavage amounted to 0.199. Regarding A71G A83U, the self-cleavage was determined as 0.323. Regarding G68U G80C, the self-cleavage came out at 0.253. Turning to A71G C75U, the self-cleavage is 0.151. On to U69G G80C, for which the self-cleavage was found to be 0.219.

Turning to U69G U79G, the self-cleavage was determined as 0.895. U69G U79C: the self-cleavage came out at 0.326. For the variant U69G U72C, the self-cleavage is 0.485. Consider A70U U72C, for which the self-cleavage was 0.653. On to U69A A77C, for which the self-cleavage was 0.199. As for G68A U69C, the self-cleavage was found to be 0.782. On to G68C C84U, for which the self-cleavage came out at 0.796. For the variant G73U C84U, the self-cleavage is 0.256. Under A71C C85U stands 0.875; under C66U C84A, 0.909. Regarding C66U C84U, the self-cleavage stood at 0.683.
